Data: US20260144862A1, “MATERIALS AND METHODS TO TREAT EPSTEIN-BARR VIRUS (EBV) AND EBV-INDUCED DISEASES” (Medizinische Universität Wien, priority 2022, published 2026)

Tested on: NKG2A+ NKG2D−NKG2C− NK cells
Assay: NK cell inhibition assay with GlialCAM370-389-specific cells, with or without NKG2A-blocking antibody (IFNγ ELISA)
Assay type: cell-based, human
Conditions: 10 μg/mL antibody, 12 h co-culture
Procedure: For the NK cell inhibition assays, GlialCAM370-389-specific (CFSE^low) CD4^+ T-cells, CD8^+ T-cells, and CD138^+ plasma cells were sorted and co-cultured together in an E:T ratio of 1:1 with sorted CD56^+NKG2A^+ NKG2D^−NKG2C^− NK cells from 24 healthy blood donors in OptiMem (Thermo Fisher) for 12 h at 37° C. For some experiments α-NKG2A blocking monoclonal antibodies (Monalizumab, 10 μg/mL, Innate Pharma) was added to the co-culture. The supernatant was removed, cleared by centrifugation (1000×g, 5 min), and then used for IFNγ (both Thermo Fisher) according to the manufacturer's instructions.

B1: Monalizumab: α-NKG2A blocking monoclonal antibodies (Innate Pharma) (antibody, chains of the INN, looked up, V domains shown)
VH: QVQLVQSGAEVKKPGASVKVSCKASGYTFTSYWMNWVRQAPGQGLEWMGRIDPYDSETHYAQKLQGRVTMTTDTSTSTAYMELRSLRSDDTAVYYCARGGYDFDVGTLYWFFDVWGQGTTVTVSS
VL: DIQMTQSPSSLSASVGDRVTITCRASENIYSYLAWYQQKPGKAPKLLIYNAKTLAEGVPSRFSGSGSGTDFTLTISSLQPEDFATYYCQHHYGTPRTFGGGTKVEIK
For B1, the “inhibition of NKG2A+ cells by GlialCAM370-389-specific cells from patients with MS when NKG2A-blocking antibody is added” value was “reversible”.
